In the Human Domainome abundance scans (Beltran et al. 2025):
± gives the uncertainty stated by the source.

Assay: abundance fitness (aPCA) (normalised: wild type 0, dead -1); higher = more abundant; growth selection in yeast, the domain comes from the species named
Conditions: Homo sapiens

Compared with “Lipoamide acyltransferase component of branched-chain alpha-keto acid dehydrogenase complex, mitochondrial V192K, P11182”, Nanos homolog 2 V100L, P60321 is lower in abundance fitness: 0.062 ± 0.046 for the first, -0.123 ± 0.077 for the second.

Going from “Lipoamide acyltransferase component of branched-chain alpha-keto acid dehydrogenase complex, mitochondrial I186A, P11182” to “Lipoamide acyltransferase component of branched-chain alpha-keto acid dehydrogenase complex, mitochondrial K211G, P11182”, the abundance fitness rises from -0.555 ± 0.044 to 0.007 ± 0.037.

First: Lipoamide acyltransferase component of branched-chain alpha-keto acid dehydrogenase complex, mitochondrial N207Y, P11182
Second: Lipoamide acyltransferase component of branched-chain alpha-keto acid dehydrogenase complex, mitochondrial R178S, P11182
The abundance fitness of the first is lower: -0.453 ± 0.23 for the first, -0.081 ± 0.057 for the second.

“Lipoamide acyltransferase component of branched-chain alpha-keto acid dehydrogenase complex, mitochondrial G198F, P11182” and “Lipoamide acyltransferase component of branched-chain alpha-keto acid dehydrogenase complex, mitochondrial V191W, P11182” are within error of each other in abundance fitness: -0.771 ± 0.25 for the first, -0.899 ± 0.064 for the second.

Going from “Lipoamide acyltransferase component of branched-chain alpha-keto acid dehydrogenase complex, mitochondrial G193D, P11182” to “Lipoamide acyltransferase component of branched-chain alpha-keto acid dehydrogenase complex, mitochondrial A173L, P11182”, the abundance fitness rises from -0.773 ± 0.088 to -0.411 ± 0.058.

“Lipoamide acyltransferase component of branched-chain alpha-keto acid dehydrogenase complex, mitochondrial K187S, P11182” and “Lipoamide acyltransferase component of branched-chain alpha-keto acid dehydrogenase complex, mitochondrial E190A, P11182” are within error of each other in abundance fitness: -0.045 ± 0.054 for the first, -0.093 ± 0.047 for the second.

First: Lipoamide acyltransferase component of branched-chain alpha-keto acid dehydrogenase complex, mitochondrial L188A, P11182
Second: Lipoamide acyltransferase component of branched-chain alpha-keto acid dehydrogenase complex, mitochondrial I205E, P11182
The abundance fitness of the first is lower: -0.494 ± 0.057 for the first, -0.289 ± 0.047 for the second.

Compared with “Lipoamide acyltransferase component of branched-chain alpha-keto acid dehydrogenase complex, mitochondrial R199M, P11182”, “Lipoamide acyltransferase component of branched-chain alpha-keto acid dehydrogenase complex, mitochondrial V191F, P11182” is lower in abundance fitness: -0.088 ± 0.088 for the first, -0.456 ± 0.054 for the second.

Compared with “Lipoamide acyltransferase component of branched-chain alpha-keto acid dehydrogenase complex, mitochondrial P175D, P11182”, “Lipoamide acyltransferase component of branched-chain alpha-keto acid dehydrogenase complex, mitochondrial S194A, P11182” is lower in abundance fitness: 0.038 ± 0.048 for the first, -0.564 ± 0.073 for the second.

“Lipoamide acyltransferase component of branched-chain alpha-keto acid dehydrogenase complex, mitochondrial A173Y, P11182” and “Lipoamide acyltransferase component of branched-chain alpha-keto acid dehydrogenase complex, mitochondrial L172E, P11182” are within error of each other in abundance fitness: -0.153 ± 0.19 for the first, -0.107 ± 0.061 for the second.

“Lipoamide acyltransferase component of branched-chain alpha-keto acid dehydrogenase complex, mitochondrial N184Q, P11182” and “Lipoamide acyltransferase component of branched-chain alpha-keto acid dehydrogenase complex, mitochondrial P175I, P11182” are within error of each other in abundance fitness: -0.16 ± 0.1 for the first, -0.133 ± 0.065 for the second.

Compared with “Lipoamide acyltransferase component of branched-chain alpha-keto acid dehydrogenase complex, mitochondrial R199C, P11182”, “Lipoamide acyltransferase component of branched-chain alpha-keto acid dehydrogenase complex, mitochondrial K196C, P11182” is lower in abundance fitness: -0.054 ± 0.065 for the first, -0.22 ± 0.051 for the second.

Going from “Lipoamide acyltransferase component of branched-chain alpha-keto acid dehydrogenase complex, mitochondrial E190D, P11182” to “Lipoamide acyltransferase component of branched-chain alpha-keto acid dehydrogenase complex, mitochondrial K196F, P11182”, the abundance fitness falls from 0.039 ± 0.064 to -0.408 ± 0.062.

“Lipoamide acyltransferase component of branched-chain alpha-keto acid dehydrogenase complex, mitochondrial A176M, P11182” and “Lipoamide acyltransferase component of branched-chain alpha-keto acid dehydrogenase complex, mitochondrial V192L, P11182” are within error of each other in abundance fitness: -0.127 ± 0.043 for the first, -0.068 ± 0.044 for the second.

Compared with “Lipoamide acyltransferase component of branched-chain alpha-keto acid dehydrogenase complex, mitochondrial I200N, P11182”, “Lipoamide acyltransferase component of branched-chain alpha-keto acid dehydrogenase complex, mitochondrial V192P, P11182” is higher in abundance fitness: -0.711 ± 0.28 for the first, 0.011 ± 0.05 for the second.

Going from “Lipoamide acyltransferase component of branched-chain alpha-keto acid dehydrogenase complex, mitochondrial L209Q, P11182” to “Lipoamide acyltransferase component of branched-chain alpha-keto acid dehydrogenase complex, mitochondrial L172P, P11182”, the abundance fitness falls from -0.072 ± 0.043 to -0.226 ± 0.057.

Compared with “Lipoamide acyltransferase component of branched-chain alpha-keto acid dehydrogenase complex, mitochondrial G214Q, P11182”, “Lipoamide acyltransferase component of branched-chain alpha-keto acid dehydrogenase complex, mitochondrial G198W, P11182” is lower in abundance fitness: 0.133 ± 0.074 for the first, -0.982 ± 0.16 for the second.

Going from “Lipoamide acyltransferase component of branched-chain alpha-keto acid dehydrogenase complex, mitochondrial R178E, P11182” to “Lipoamide acyltransferase component of branched-chain alpha-keto acid dehydrogenase complex, mitochondrial R179H, P11182”, the abundance fitness falls from -0.022 ± 0.053 to -0.368 ± 0.14.

Going from “Lipoamide acyltransferase component of branched-chain alpha-keto acid dehydrogenase complex, mitochondrial L180E, P11182” to “Lipoamide acyltransferase component of branched-chain alpha-keto acid dehydrogenase complex, mitochondrial G214W, P11182”, the abundance fitness rises from -0.438 ± 0.047 to -0.315 ± 0.054.

First: Lipoamide acyltransferase component of branched-chain alpha-keto acid dehydrogenase complex, mitochondrial G198R, P11182
Second: Lipoamide acyltransferase component of branched-chain alpha-keto acid dehydrogenase complex, mitochondrial D204M, P11182
The abundance fitness of the first is higher: -0.514 ± 0.044 for the first, -1.35 ± 0.11 for the second.

First: Lipoamide acyltransferase component of branched-chain alpha-keto acid dehydrogenase complex, mitochondrial A176H, P11182
Second: Lipoamide acyltransferase component of branched-chain alpha-keto acid dehydrogenase complex, mitochondrial I200G, P11182
The abundance fitness of the first is higher: -0.128 ± 0.06 for the first, -0.667 ± 0.045 for the second.

Compared with “Lipoamide acyltransferase component of branched-chain alpha-keto acid dehydrogenase complex, mitochondrial I200L, P11182”, “Lipoamide acyltransferase component of branched-chain alpha-keto acid dehydrogenase complex, mitochondrial L180P, P11182” is lower in abundance fitness: -0.334 ± 0.043 for the first, -0.557 ± 0.13 for the second.

First: Lipoamide acyltransferase component of branched-chain alpha-keto acid dehydrogenase complex, mitochondrial S194P, P11182
Second: Lipoamide acyltransferase component of branched-chain alpha-keto acid dehydrogenase complex, mitochondrial T213W, P11182
The abundance fitness of the first is lower: -0.694 ± 0.075 for the first, -0.247 ± 0.053 for the second.

“Lipoamide acyltransferase component of branched-chain alpha-keto acid dehydrogenase complex, mitochondrial P175C, P11182” and “Lipoamide acyltransferase component of branched-chain alpha-keto acid dehydrogenase complex, mitochondrial L206N, P11182” are within error of each other in abundance fitness: -0.151 ± 0.062 for the first, -0.052 ± 0.066 for the second.

“Lipoamide acyltransferase component of branched-chain alpha-keto acid dehydrogenase complex, mitochondrial P175S, P11182” gave an abundance fitness of -0.127 ± 0.044.
